Test results as given in the nanobody polyreactivity screen of Harvey et al. (2022).

Assay: yeast display, Sf9 membrane polyspecificity reagent, FACS + sequencing; frameworks hold sequencing errors
Summary of the method: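 Genes from sorted yeast were amplified by colony PCR, read by MiSeq 2 × 250 sequencing and filtered on CDR length. These cells carried a synthetic nanobody library in Saccharomyces cerevisiae BJ5465 and were sorted by FACS into low and high (top ~1%) gates on anti-HA and streptavidin fluorescence. Polyreactivity is labelled according to the gate of origin.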

Row | Sequence | polyreactivity (PSR sort gate)
1 | QVQLVESGGGLVQAGGSLRLSCPASGRTFYLYAMGWYRQAPGKVRELVARISGGGGRTYYADSVKGRFTISRDNAKNTVYLQMNSLKPEDSAVYYCNAQSPRGFTTPRQVYPLNGYWGQGTQVTVSS | high polyreactivity
2 | QVQLVETGGGLVQAGGSLRLSCAASGLTFYVYAMGWYRQAPGKERELVAAISSGGRTYYADSVKGRFTISRDNAKNTVYLQMNSLKPEDTAVYYCAAVRHRNYGYWGQGTQVTVSS | high polyreactivity
3 | QVQLVESGGGLVQAGGSLRLSCAASGFIFVRYAMGWYRQAPGKEREFVASITRSDGSTYADSVKGRFTISRDNAKNTVYIQMNSLKPEDTAVYYCNKDNHDVELPVEFEYWGQGTQVTVSS | high polyreactivity
4 | QVHLVESGGGLVQAGGSLRLSCAASGSTIDINAMGWYRQAPGKERELVAAISSGGITNYADSVKGRFTISRDNAKNTVYLQMNSLKPEDSAVYYCATQTYTFRWFGSPGWFDYWGQGTQVTVSS | low polyreactivity
5 | QVQLVESGGGLVQAGGSLRLSCAASGFTFRRYAMGWYRQAPGKERELVAAISIRGGRTYYADSVKGRFTISRDNAKNTVYLQMNSLKPEDTAVYYCAAEVGFWGYGGYYYWGQGTQVTVSS | high polyreactivity
6 | QVQLVESGGGLVQAGGSLRLSCAASGRIFRYYAMGWYRQAPGKERELDAGITGRGGRTYYADSVKGRFTISRDNAKNTVYLQMNSLKPEDTAVYYCAATVSPSYDYWGQGTQVTVSS | high polyreactivity
7 | QVQLVESGGGLVQAGGSLRLSCGASGFIFVRYAMGWYRQAPGKERELVAAITKGGGRTYYADSVKGRFTISRDNAKNTVYLQMNSLKPEDTAVYYCATGGAHGRERDYGGQGTQVTVSS | high polyreactivity
8 | QVQLVESGGGLVQAGGSLRLICAASGSTFGRNAMGWYRQAPGKERELVAAITASGGTTYYADSVKGRFTISRDNAKNTVYLQMNSLKPEDTAVYYFARAGHFSFKYDYWGQGTQVTVSS | low polyreactivity
9 | QVQLVESGGGLVQAGGSLRLSSAASGFTFSLYRMGWYRQAPGKERELVASISNRGGTFYADSVKGRFTISRDNAKNTVYVQMNSLKPEETAVYYCARKTYYTGDFLGREYGYWGQGPQVTVSS | low polyreactivity
10 | QVQLVESGGGLVQAGGSLRLSCAASGRIFGYYAMGWYRQAPGKERELVARITKTVGGTYYADSVKGRFTISRDNAKNTVYLQMNSLKPEDTAVYYCAARVWTGNGRSKGAYDYWGQGTQVTVSS | high polyreactivity
11 | QVQLVESAGGLVQAGGSLRLSCAASGRTFVHYAIGWYRPAPAKERELVAAISWSGGSTYYADSVKGRFTISRDNAKNTGYLQMNSLKPEDTAVYYCNAGGFAPGRYGEFDYWGQGTQVTVSS | low polyreactivity
12 | QVQLVESGGGLVQAGGSLRLSCAASGLTFWVYAMGWYRQAPGKERELVAAISGSGARTYYADSVKGRFTISRDNAKNTVYLQMNSLKPEDTAVYYCAARAVRATAKYEYWGQGTQVTVSS | high polyreactivity
13 | QVQLVESGGGLVQAGGSLRLSCAASGSIFDYNTMGWYRQAPGKERELVAAISSGGSTYYADSVKGRFTISRDNAKNTVYLQMNSLKPEDTAVYYCAARRAGWWGFYYWGQATQVTVSS | high polyreactivity
14 | QVQLVESGGGLVQAGGSLRLSCAASGSTFVQNAMGWYRQAPGKERELVAAISRTGGSTYYADSVKGRFTISRDNAKNTVYLQMKSLIPEDTAVYYCATRPPHYSWPKIIEFGSWGQGSQVTVSS | high polyreactivity
15 | QVQLVESGGGLVQAGGSLRLSCAASGSIFRSYAMGWYRQAPGKERELVAAISRRGGSTYYADSVKGRFTISRDNVKNTVYLQMNSLKPEDTAVYYCAADRTGPYDYWGQGTQVTVSS | high polyreactivity
16 | QVQLVESGGGLVQAGGSLRLSCAASGRTFRRNAMGWYREAPGKERELVASINRGGGKNYADSVKGRFTISRDNAKNTVYLQMNSLKPEDTAVYYCAAVPIAADKANGYDYWGQGTQVTVSS | low polyreactivity
17 | QVQLVESGGGLVQAGGSLRLSCAASGRTFLLYAMGWYRQAPGKERELVASITSDGRTNYADSVKGRFSISRDNAKNTVYLHMNSLKPEDTADYYCATVGKVHHRLVAMDYWGQGTQVTVSS | low polyreactivity
18 | QVQLVESGGGLVQAGGSLRLSCAASGFTVDLYAMGWYRQAPGKERELVAAITSSGGSTYYADSVKGRFTISRDNAKNTVYLQMNSLTPEDTAVYYCAVAYSSHTSYYSWGQGTQVTVSS | low polyreactivity
19 | QVQLVDSGGGLVQAGGSLRLSCAASGSNFTKYAMGWYRQAPGKERELVAAILRSGDRTYYADSVKGRFTISRDNAKNTVYLQMTSMIPEDTAVYYCAAGYSQYWTDPQGFAYDYWGQGTQVTVSS | low polyreactivity
20 | QVQLVESGGGLVQAGGSLRLSCAASGFIFYIYPMGWYRQAPGKERELLAAISWNGGSTYYADSVKGRFTISRDNAKNTVYLQMNSLNPEDTAVFYCATLARYRYGTGRFDYWGQGTQVTVSS | high polyreactivity

Row | Sequence | polyreactivity (PSR sort gate)
21 | QVQLVESGGGLVQAGGSLRLSCAASGSIFKYNAMGWYRQAPGKERELVAAITNGGSTYADSVKGRFTISRDNAKNTVYLQMNSLKPEDTAVYYCNFYGQDGVNVTYDYWGQGTQVTVSS | low polyreactivity
22 | QVQLVESGRGLVRAGGSLPFSCAASAGNFMRYAMGWYRQAPGKERELVAAITANGGSTYYADSVKGRFTISRDNAKNTVYLQMNSLKPEDTAVYYCNADTGVRSYRRDYWGQGSQVTVSS | low polyreactivity
23 | QVQLVESGGGLVQAGGSLRLSCAASGRTFRRYTMGWYRQAPGKERELVATISKTGGSTYYADSVKGRFTISRDNAKNTVYLQMNSLKPEDTAVYYCAARSVALFIMYYWGQGTQVTVSS | high polyreactivity
24 | QVQLVDSGGGLVQEVGSLRLSCAASGSTFPFNAMGWYRQAPGKERELVATISGRGGSTYYADSVKGRFTISRDNAKNTVYLQMNSLKPEDTAVYYCAAEIHDRFDSWGQGTQVTVSS | low polyreactivity
25 | QVQLEESGGGLVQEGGSLRLSCAASGRIFKWNAMGLYRQAPGKERELVAAISLSGGSTYYADSVKGRFTISRDNAKNTVYLQMNSLKPEDTAVYYCNAYAYHRYGYWGQGTQVTVSS | high polyreactivity
26 | QVQLVESGGGLVQAGGSLRLSCAASGSTFRDNVMGWYRQAPGKEWEFVAAISSSVGSTYYADSVKGRFTISRDNAKNTVYLQMNSLKPEDTAVYYCAARLWPSYLSYGKTGDYWGQGTQVTVSS | high polyreactivity
27 | QVQLVDSGAGLVQAGGSLRLICAASGSIFPYYAMGWYRQAPGKERELVAGISNGDSTNYADSVKGRFTISGDNAKNTVYLQINSLKPEDTAVYYCSTVLPGGRYYGPYDFWGQGTQVTVSS | low polyreactivity
28 | QLQLVESGGGLVQAGGSLRLSCAASGGTFQPNAMGWYIQAPGKESELVAAISWSDGSTYYADSVKGRFTISRDYAKNTVYLQMNSLKPEDTAVDYCAADFTYYDSPYRDYNYESWGQGTQVTVSS | low polyreactivity
29 | QVQLVESGGGLVQAGGSLRLSCAASGRIFDTNVMGWYRQAPGKERELVAALSYSGGSTYYADSVKGRFTISRDNAKNTVYLQMNSLKPEDTAVYYCAAQYWQGDYDYRGQGTQVTVSS | high polyreactivity
30 | QVQLVESGGGLVQAGGSLRLSCAASGLTFLWYAMGWYRQAPGKERELVAAITSGGRTKYADSVKGRFTISRDNAKNTVYLQMNSLKPEDTAVYYCAKRGGGTTYSRKHDYWGQGTQVTVSS | high polyreactivity
31 | QVQLVESGGGLVQAGGSLRLSCAASGRIFGLNTMGWYRQAPGKERELVAAITSSAGSTYYADSVKGRFTISRDNAKNTVYLQMNSLKPEDTAVYYCAARVSYLGSFTSQRYYYWGQGTQVTVSS | high polyreactivity
32 | QVQLVESGGGLVQAGGSLRLSCAASGRTFYVYAMGWYRQAPGKERELVAAISWRGGSTYYADSVKGRFTISRDNAKNTVYLQMNSLKPEDTAVYYCATAGGDWYGVDYWGQGTQVTVSS | low polyreactivity
33 | QVQLVESGGGLVQAGGSLRLSCAASGSNFGKYAMGWYRPAPGKERELVATITRRGGSTYYADSVKGRFTISRDNAKNTVYLQMNSLKPEDSAVYYCAKRSNGYVDYGYWGQGTQVTVSS | high polyreactivity
34 | QVQLVESGGGLVQEGGSLRLSCAASGSIFTLYFMGWYRQAPGKERELVAAITWSGGSTYYADSVKGRFTISRDNAKNTVYLQMNSLKTEVTAVYYCNADVRWDSQDYYYWGQGTQVTVSS | low polyreactivity
35 | QVQLVESGGGLVQAGGSLRLSCAASGFTLFGYAMGWYRQAPGKERELVAAITSGDGRTYYADSVKGRFTISRDNAKNTVYLQMNSLKPEDTAVYYCAATRYSSYYYVRHDHWGQGTQVTVSS | low polyreactivity
36 | QVQLVESGGGLVQAGGTLRLSCAASGITFWYYARGWYRPAPGKERELVAVISYSGGIKSYADSVKGRFTISRENAKNTVNLQMNSMKPEDTAVFYCYTLYGRFKAKVYKYGSWGQGTQVTVSS | high polyreactivity
37 | QVQLVESGGGLVQAGGSLRLSCAASGFTFIYYAMGWYRQAPGKERELVAAITSGGNTYYADSVKGRFTISRDNAKNTVYFQMNSLKPEDTAVYYCNKVPHREWVGGYDYWGQGTQVTVSS | low polyreactivity
38 | QVQLVESGGGLVQAGGSLRLSCAASGRIFRDYAMGWYRQAPGNERELVAAISWSGGSTYYADSVKGRFTISRDNAKNTVYLQMNSLKPEDTAVYYCAGDYYGGDSYRYDYWGQGTQVTVSS | low polyreactivity
39 | QDQLVESGGGLVQAGGSLRLSCADSGSNFKYNAMGWYRPAPGKERELVAAISTRGSTTNYADSVKGRFTISRDNAKNTVYLQMNSLKPEDTAVYDCNKYANRRDRTRGADYDYWGQGTQVTVSS | high polyreactivity
40 | QVQLVESVGGLVQARGSLRLSCAASASIFPSYAMGWYIQAPGKERELVAVISWRGGSTYYADSVKGRFTISRDNAKNTVYLQMNRLKPEDTAVYYCAARSWDPKLSTYPFHFNYWGQGTQVTVSS | high polyreactivity
